Reference: the nanobody polyreactivity screen of Harvey et al. (2022)

Experiment: yeast display, Sf9 membrane polyspecificity reagent, FACS + sequencing; frameworks hold sequencing errors
In short: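 Genes from sorted yeast were amplified by colony PCR, read by MiSeq 2 × 250 sequencing and filtered on CDR length. These cells carried a synthetic nanobody library in Saccharomyces cerevisiae BJ5465 and were sorted by FACS into low and high (top ~1%) gates on anti-HA and streptavidin fluorescence. Polyreactivity is labelled according to the gate of origin.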

Sequence | polyreactivity (PSR sort gate)
QVQLLESGGGLVQAGGSLRLSCAASGFIFYEYAMGWYRQAPGKERELVAAITSGGSTDYADSVKGRFTISRDNAKNTVYLQMNSLKPEDTAVYYCNADLFTGYYWYNYWGQGTQVTVSS | low polyreactivity
QVQLVESGGGLVQAGGSLRLSCAASGITFRGYAMGWYRQAPGKERELVATISYRGGNTYYADSVKGRFTISRDNAKNTVYLQMNSLKPEDTAVYYCARKYFRTSNLYGYWGQGTQVTVSS | high polyreactivity
QVQLVESGGGLVQAGGSLRLSCAASGSTFLRYAMGWARQAPGKERELVARISGGGTTYYADSVKGRFTISRDNAKNTVYLQMNSLKPEDTAVYYCAARAIYWSRYDYWGQGTQVTVSS | high polyreactivity
QVQLVESVGGLVQAGGSLRLSCAASGRIFGRYAMGWYRQAPGKESELVAAISTNGGRTYYADSVKGRFTISRDNAKNTVYLQRKSLKPEDNADYYCARAYRGPGYVIRYDYWGQGTQVTVSS | high polyreactivity
QVQHVESGGGLVQAGGSHRLSCAASGSIYWWNAMGWYRQAPGKERELVAAISFSGGSTYYADSVKGRFTISRDNAKNTVYLQMNSLKPEDTAVYYCAAEAYDDYDYWGQGTQVTVSS | low polyreactivity
QVQLVESGGGLVQAGGILRLSCAASGSIFNRNAMGWYRQAPGKEREFVADISWSGGSTYYADSVKGRFTISRDNAKNTVYLQMNSLKPEDTAVYYCAAKSTGRWWRAGYVYWGQGTQVTVSS | high polyreactivity
QVQLVESGGGLVQAGGSLRLSCAASGSSFISNAKGWYRQAPGKERELVAAINWTTGRTRYADSVQGRFTISRDNAKNSVYLQMNSLKAEDTAVYYCAKYSRKWYGAYYFWGQGTQVNVSS | high polyreactivity
QVQLVESGGGLVQAGGSLRLRCAASGFIFAWDAMGWYRQAPGKERELVATISGSGGRTYYADSVKGRFPISRDNAKNTVYLQMISLKPEETAVYYCATRAQGTSWYRTSKYDYWGQGTQVIVSS | high polyreactivity
QVQLVESGRGLVQAGCSLRLSCASSGFIFVFNAMGRYRQAPGKERELVAAINGGDITNYAYSVKGRFTISRDNAKNTVYIQMNSLKPEDTAVYYCAADGEDSLWSGYDYDYWGLGTQVTVSS | low polyreactivity
QVQLVESGGGLVQAGGSLRLSCAASASTFWKYAMGWYRQAPGKEREFVAAITRSGGNTYYADSVQGRFTISRDNAKNTVFLQMNSLKPEDTAVYYCDKVTTVPYTNDYWGQGTQVTVSS | high polyreactivity
QVQLVESGGGLVQAGGSLRLSCAASGRTFKTYAMVWYRQAPGKERELVAAISRDGRTYYADSVKGRFTISRDNAKNTVYLQMNSLKPEDTAVYYCNKRSYRNGDYWGQGTQVTVSS | low polyreactivity
QVQLVESGGGLVQAGGSLRLSCPASGSIFWPNAMGWYRQAPGKERELVASINSGSGSTYYADSVKGRFTISRDNAKNTVYLQMNSLKPEDTAVYYCNAAGAYPYYSEDYYWGQGTQVTVSS | low polyreactivity
QVQLVESGGGLVQAGGSLRLSCAASGRTFPGNAMGWYRQAPGKERELVAAISYRGGSTYYADSVKGRFTISRDNAKNTVYLQMNSLKPEDTAVYYCAAASERTGYYYWGQGTQVTVSS | high polyreactivity
QVQLVESGGGLVQAGGSLRLICPASGRTFQYYAMGWYRQAPGKERELVAAIDDSDGDTYYADSVKGRFTISRDYATNTVYLQMISLKPEDTAVYYCAAVDGWTYTGSDYWGQGTQVTVSS | low polyreactivity
QVQLVESGGGLVQAGGSLRLSCAASGRTFILNAMGLYRQAPGKERELVAAISWSGGSTYYADSVKGRFTISRDNAKNTVYLQMNSLKPEDTAVYYCAAETYAYLFHTYDYWGQGTQVTVSS | low polyreactivity
QVQLVESGGGLVQAGGSLRLSCAASGSTFQINAMGWYRQAPGKERELVAAIDGGGDTYYADSVKGRFTISRDNAKYTVYLQMNSMKPEDTAVYYCAAERRIYYQDFNFWGQGTQVTVSS | low polyreactivity
QVQLVESGGGLVQAGGSLRLSCAASGITFERYAIGWYRQAPGKERELVAAITSSGGSTYYADSVKGRFTISRDNAKNTVYLQMNSLKPEDTAVYYCAARNAYTPRHDYWGQGTQVTVSS | high polyreactivity
QVQLVESGGGLVQAGGSLRLSCAASGRTFSDYTMGWYRQAPGKERELFAAISGSVVNTYYADSVKGRFTISRDNAKNTVYLQMNSLKPEDTAVYYCAKDRIFYHYALYRWRVESYYWGQGTQVTVSS | low polyreactivity
QVELVESGGGLVQAGGSLRLSCAASGITLRHYTMGWYRQAPGKVRELVATISRSGGRTYYADSVKGRFTISRDIAKNTVYLQMNSLKPEDTAFYYCARQFWRHWYGYWGQGTQVTVSS | high polyreactivity
QVQLVESGGGLVQAGGSLRLSCAASGSILEVYAMGWYRQAPGKERELVAAISDGDSTYYADSVKGRFTISRDNAKNTVYLQMNSLKPEDTAVYYCAAEFVGTLWWYDDWGQGTQVTVSS | low polyreactivity
QVQLVESGGGLVQAGGSLRLSCAASGSIVGYNAMGWYRQAPGKEWEFVAAISWSGGRTYYADSVKGRFTISRDNAKNTVYLQMNILKPEDTAVYYSAADVFFYVYEAYLLYYWGQRTQVTVSS | low polyreactivity
EEELVESGGGLVQAGGSSLRLSCAASGFIFVSNAMGWYRQAPGKERELVASIRWSDGSTFDADSVKGRFTNSRDNAKNTVYLQMNSLKPEDTAVYYCNAVYEHRRVGWVTIDYGYWGQGTQVTVSA | low polyreactivity

Sequence | polyreactivity (PSR sort gate)
QVQLVESGGGLVQAGGSLRLSCAASGRIIVRNAMGWYRQAPGKERELVAAISGSGSRTYYADSVKGRFTISRDNAKNTVYLQMNSLNPEDTAVYYCAASGYWPFRSGFGYWGQGTQVTVSS | high polyreactivity
QVQLVESGGGLVQAGGSLRLSCAASGRIFVNNAKGWYRPAPGKERELVAAISRGASTYYADSVKGRFTISRDNAKNTVYLQLNSLKAEDTAVYYGNARTDAYGASEMGYWGQGTQVTVSS | high polyreactivity
QVQLVESGGGLVQAGGSLRLSCAASGFTFGYYAMGWYRQAPGKERELVAAISSSGGSTYYADSVKGRFTISRDNAKNTVYLQMNSLKPEDTAVYYCAVVVFSRVYRYFTSDYWGQGTQVTVSS | high polyreactivity
QVQLVESGGGLVQAGGSLRLSCAASGSIFSVYARGWSRQAPGKERELVAAITSGTSTYADSVKGRFTISRDNAKNTVYLQMNSLKPEDTAVYACAAESGSPGYYYWGQGTQVTVSS | low polyreactivity
QVQLVESGGGLVQAGGSLRLSCAASGFTLSRYAMGWYRQAPGKERELVAAISSSGDSTYYADSVKGRFTISRDNAKNTVYLQMNSLKPEDTAVYYCNVYTYHRYDYWGQGTQVTVSS | high polyreactivity
QVQLVESGGGLVQAGGSLRLSCAASGFIFGFYAMGWYRQAPGKERELVAAISGGGGRTNYADSVKGRFTISRDNAKNTVYLQMNSLKPEDTAVYYCARSPSYYSYTFGRQAYGNDYWGQGTQVTVSS | high polyreactivity
QVQLVESGGGLVQAGGSLRLSCAASGLTFYYYAMGWYRQAPGKERELVAAISSVGSTYYADSVKGRFTISRDNAKNTVYLQRNSLKPEDTAVYYCAAKSYWWHEDYWGQGTQVTVSS | low polyreactivity
QVQLVESGGGLVQAGGSLRLSCAASGRTFRDNAMGWYRQAPGKERELVAAISSGDRTNYADSVKGRFTISRDNAKNTVYLQMNSLKPEETAVYYCAAVRYNSRVSTTPSEMYYWGQGTQVTVSS | low polyreactivity
QVQLVESGGGLVQAGGSLRLSCAASGITIKAYAMGWYRQAPGKERELVAAISGSGGSTYYADSVEGRFTISRDNAKNTVYLQMNSLKPEDTAVYYCAARAVSLTGYRFGYWGQGTQVTVSS | high polyreactivity
QVQLVESGGGLVQAGGSLRLSCAASGFTFGENAMGWYRQAPGKERELVATISDSGDSTYYADSVKGRFTISRDNAQNTVYLQMNSLKPEDTAVYYCAAPLPHRGYDEGYWGQGTQVTVSS | low polyreactivity
QVQLVESGGGLVQAGGSLRLSCAASGRTFGYYAMGWYRQAPGKERELVAAISYSSTITYYAGSVKGRFTISRDNAKNTVYLQMNSLKPEDTAVYYCAAYSTRGVEYDYWGQGTQVTVSS | high polyreactivity
QVQLVESGGGLVQAGGSLRLSCAASGHTFRYYAMGWYRQAPGKERELVAAITGGGGSTYYADSVKGRFTISRDNAKNTVYLQMNSLKPEDTAVYYFATGGVSGIVGGDYWGQGTQVTVSS | low polyreactivity
QVQLVESGGGLVQAGGSLRLSCAASGRIFTYNTMGWYRQSPGKEREFVASITYSGSSTYYADSVKGRFTISRDNAKNTVYLQMNSLKPEDTAVYYCATRYGYSDGDYWGHGTQVTVSS | low polyreactivity
QVQLVESGGGLVQAGGSLRLSCAASGFTLAWYAMGWYRQAPGKERELVATIRSGGNTYYADSVKGRFTISRDNAKNTVYLQMNSLKPEDTAVYYCAKTHTYPRYGRGYDYWGQGTQVTVSS | high polyreactivity
QVQLVDSGGGLVQAGGRLRLSCAASGNNFVEYAMGWYRPAPGKERELVAAITNSGGRTHYADSVKRRFTISRDNAKNTVYLQMNSLKPEDTGVYYCAAPTKYRSRRYYWGQGTLVTVSS | high polyreactivity
QVQLVESGGGLVQAGGSLRLSCAASGSTSVTNAMGWYRQAPGKEREFVATINYSGTSTYYADSVKGRFTISRDNAKNTVYLQMNSLKPEDTAVYYCNAHDFGFYRFSLPGYDYWGQGTQVTVSS | low polyreactivity
QVQLVESGGGLVQAGGSLRLSCAASGYTFTSNAMGWYRQAPGKERELVAAISRSGVSTSYADSVKGRFTISRDNAKNTVYLQMNSLKPEDSAVYYCNRYYWDPTHPRYDSWGQGTQVTVSS | high polyreactivity
QHQLVESGGGLFQAGGSLRLSCAPSGSIIVWNAMGWYRQAPGKERELVASMTSGASTYYADSGKGRVTISRDNAKNTVYLQMNSLKPEDTAVYYCAAYYGYTDGWYLYSGYNYWGQGTQVTVSS | low polyreactivity
QDQHVESGGGLVQAGGSLRLSCDASGTTIYDYVMGWYRKAPGKERELVAAITRGGSTNYADSVKGRFTISRDNAKNTVYLQMNRLKPEDTAVYYCAARPCIWARAGYYWGQGTQVTVSS | high polyreactivity
QVQLVESGGGLVQAGGSLRLSCAASGFTIYIYVMGWYRQAPGKETELVADITWSGGRTYYADSVKGRFTISRDNAKNTVYLQMNSLKPEDTAVYYCAASYPGLSYHKYEYWGQGTQVTVSS | high polyreactivity
QVQLVESGGGLVQAGGSLRLSCAASGFTFGTYAMGWYRQAPGKERELVAAISKRGGSTYYADSVKGRFTISRDNAKNTVYLQMNSLKPEDTAVYYCATGSYTTYGYGYWGQGTQVTVSS | high polyreactivity
